According to a protein production outcome set (Wang et al. 2014):

Experiment: label from the status in PepcDB records

Row | Sequence | protein production
1 | MRRFLAGLWLLGLALGQGLVLPFEGPKGYGLAQAFAQGLKAPPPTLLALLLPDLPWRGSYELAGGLYTKAGARLARAATGADWVLLGREEEGGLRLILAREGGSEERLFKTPELAWLWLQGKGLAPRLSPLPTPGLPEERLRALAQGEAPDPLHRSALDLKEGRGSGLLEGLLPERLLLLWQGKLPRAYEAFRLLAEGKREEALALAEAMEEGDVLERTAAHLLFRALEDERWKASARRLAEAFPELSLAWEEVSFAAFQEGKGEEAKEALLKALALRPDYWLYWTNLGWAYYLTGDLPRAIQASERAVALSPNATAYYNLGLFKAIYGDFLGAKAAYDRALRLDQGEDYPEALKDLEEREEPLALFFRAYLAERTGLEAEPLYRAFLEAYPRHPAAFAARRALATLKAGGLSLEVERLTLVPGGPDARPFRAGEAIFPEVRLEGRPYLRQASLFTALYREGRKVAEEEKPVGFPPLTVALLEVAPPVVPEAPGRYRLEVRYAEARAVLDLEVGAPSLARRLFALGLEVRDLSGRPLLTPKEALGEDGERLLLERAREALMEAAPLATTERLTQPLEKGPVAGRSVQEVLRDPDPEILRAFFQAVLENPERLAETDVVNAFVNWLLEP | failed
2 | MALAMNRSITAITVTHNSAHTVRGALARLPPGVEIVCVDNASTDDLSTALSDLAVHRIDNPVNLGFGRACNIGAAAATGEYLLFINPDVRLGTDAVDALLQAAERYPNCGVFVPRTNTVDGRLWFREESEIDRLSGVSLPTRIRQVWGDCCVRFVNGGVFMIKRTLFLDTGGFDEDIFLYFEDDDLSYRLLQRDEPMILVSGAHAVHDIGTSVAQSTRSRIFRYRSKMRSEIHLRKKYGIAYSPFVDILRYSTKIGFYCLTLNRNRLINSLGRLIGIFDSILDRSRANRNGGYVALEHHHHHH | not failed
3 | MSTELIAAVEAADSAEGLVRAVAALSAARTDAAIPTLISVLAFNNPGAAVVAVDGLIQLGSPAAQAILNNLDDYNYGARAWALRALAGIGEPAALPLLLSAAREDFSLSVRRAATYGLGRVRWADLSESDRLAQQQQCYETLKLCLQYDPEWVVRYAAAAALETLAPAATQLQSAIAETLNRQAHSDEERAVQARSRLAERRLAGGVLEHHHHHH | not failed
4 | CGGCGEDVVGDGAGVVALDRVFHVGCFVCSTCRAQLRGQHFYAVERRAYCEGCYVATLE | not failed
5 | MVRVCACLIVKNEAAHLARCLGSVQPWVDDIVVVDTGSTDETPAIARQFTERLFTFPWQDDFAAARNYSLEQATGDWILVIDADEVLVTLQEPPVPLGQQLAGSPFTAYQLLRREIGTGEQFSDFAIVRLFRNLPTLRYQGRFHEQLVSTAAAPLTIGTLETLRIDHYGYQPAQIQAKMRDRNIPILERIRASEGLPLHLLFALADMYQAVNNPVEAENCYQELFDRLLPHLLSGQLPENAPGALPEILNQLGRRLLATGDHDTLQLLCQQGLAWFPTYPPLNDLAGRWLMTLGFPLGATAYFEYCLELGRTNGYSKQMIFPLGYVREIAAEQLGRAYEALGDRERAAAAFAQAAALRQGKAHPQLEHHHHHH | not failed
6 | MQNPRRICVADPNHRLSQKRFTRNSRDIFICPDCGCIMADVDFDHDQYESGDYYTMQHKTVQSIEEVWGFRWRYILDQILKINGRSSLLDVGAGNGYFVALASREFSFDASGLEISQEEVQFAADVLNIGLIREDLTQHNLDYDVVTCLNVLEHVVDPQLFLSHLVNRVKPGGLLVITTPNPACIHRKVKGLKNWNMIAPPHHINLFTKESLYILLMRYGLIQLDYQTISTYVNFVRGFDTENLLLRRLFFNLLKIFDLGADHFFIVKKPSQC | failed
7 | MQRFALIGAGFIGGVHGDNLAAHPDVDLALVFDIDLARATDLAKRHGSRATTDLAEVFDPTAIDAVFIASSSNTHAEHLRAAATAGIPALCEKPIDLDLAHAVDIVRFAETRSLRAMVDFNRRFDRDYAELQRVVASGEIGSVELIQMTSRGPAMPPLEYIAVSGGQMRDQTVHFFDLARWISGLDPESVFATGSTLAEPRLAEYGDVDTSAVTLRLPGGALVQIDCTRRIGYGYDERIEVLGSTGMVEARRQRAGSVSRYSAGRVVDDGLHAGWFERIRGSYRTALDHFVDALENGAAIGPTLAEGLKAQAIAEAATRSLTSGRMEPIEYPA | failed
8 | MNSPTSRPLRRDPLHNALVTTNVLVVLDQLEVAAEPTRRRLVQLLTSGEQTVNNLAAHFPASRSAISQHLRVLTEAGLVTPRKDGRFRYYRLDPQGLAQLRALFDSFWIDELDRLVADATEEAASKGDS | not failed
